Laboratory results as given in patent US20230279130A1 (QILU PUGET SOUND BIOTHERAPEUTICS, published 2023).

Columns and labels:
[1] = target: T1, full length human CCR8 (hCCR8) (human, UniProt P51685 1-355); assay: cell-based or functional assay
[2] = target: T2, recombinant hCCR8 N-terminus fused at the N-terminal of Fc region of human IgG1 (human); assay: SPR (Biacore 3000), Fab flowed over captured CCR8-fc; column head printed 'K0' (KD)
T2 construct: also called recombinant huCCR8-N terminus antigen; huCCR8 N-terminus protein; not shown: Fc region of human IgG1
T2 sequence (chain, as listed by the source): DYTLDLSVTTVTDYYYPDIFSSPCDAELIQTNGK
Experimental: (§1) FIGS. 1A-1D: Binding of anti-CCR8 Fabs to recombinant huCCR8-N terminus antigen (Seq No.1). Binding affinity of anti-CCR8 Fabs for huCCR8 N-terminus protein was determined by Biacore analysis. Digested anti-CCR8 Fab fragments were flowed over captured antigen.
(§2) The affinity of the candidate antibodies for human CCR8 was assessed using SPR on a Biacore 3000 instrument. Anti-CCR8 Fab fragments were flowed over the cells in the chip with multiple blank (running buffer) injections also run to subtract system artifacts. The data were aligned, double referenced, and fit using SCRUBBER 2™ software (BioLogic Software, Pty, Australia). […] The binding of anti-CCR8 antibodies to CCR8 was then examined in HEK293 cells or P815 cells transfected with full-length hCCR8.

[3] = target: T2, recombinant hCCR8 N-terminus fused at …; assay: SPR, Biacore 3000; Fab flowed over captured hCCR8 N-terminus-Fc
Experimental: as §1, §2

[4] = target: T1, full length human CCR8 (hCCR8); assay: cell-based or functional assay; remark: listed apart in the source

Binder	average IC50 of inhibition of CCL1-mediated chemotaxis of hCCR8 P815 cells [1] [pM]	Kd [2] [nM]	further results
engineered anti CCR8 Fab 1047 (Fab, V domains shown, Fab made by digesting the antibody; also called Fab fragment of 1047) VH: EVQLVESGGGVVQPGRSLRLSCAASGFPFEPFAMNWVRQAPGKGLEWVARIRSKANNYATYYADSVKDRFAISRDNSKSTLYLLMHSLRFEDTAVYYCVRGRENNYGYAMDYWGQGTTVTVSS VL: DVVMTQSPPSLPVTLGQSASISCRSSQSLLHSNGITYLYWFLQRPGQSPRLLIYRMSNLASGVPDRFSGSGSGTDFTLRISRVEAEDVGVYYCMQHLTYPFTFGIGTKVEIK	1090	0.876	
Fab fragment of anti-CCR8 antibody 1187 (Fab, V domains shown, also called Fab 51) VH: EVQLVESGGGVVQPGRSLRLSCAASGFPFEPFAMNWVRQAPGKGLEWVARIRSKANNYATYYADSVKDRFAISRDNSKRTLYLLMHSLRFEDTAVYYCVRGRENNYGYAMDYWGQGTTVTVSS VL: DVVMTQSPPSLPVTLGQSASISCRSSQSLLHSNGITYLYWFLQRPGQSPRLLIYRMSNLASGVPDRFSGSGSGTDFTLRISRVEAEDVGVYYCMQHLTYPFTFGIGTKVEIK	254		IC50 of inhibition of CCL1-mediated chemotaxis of hCCR8 P815 cells [1]: ~35 ng/mL; Kd [3]: 0.647 nM; fold improvement of binding affinity against the original anti-CCR8 antibody candidate [3]: 2.5 fold
engineered anti-CCR8 Fab 953 (Fab, V domains shown, Fab made by digesting the antibody) VH: EVQLVESGGGVVQPGRSLRLSCAASGFPFEPFAMNWVRQAPGKGLEWVARIRSKANNYATYYADSVKDRFAISRDNSKSTLYLLMHSLRFEDTAVYYCVRGRENRYGYAMDYWGQGTTVTVSS VL: DVVMTQSPPSLPVTLGQSASISCRSSQSLLHSNGITYLYWFLQRPGQSPRLLIYRMSNLASGVPDRFSGSGSGTDFTLRISRVEAEDVGVYYCMQHLTYPFTFGIGTKVEIK	150	0.385	
Fab fragment of anti-CCR8 antibody 1434 (Fab, V domains shown) VH: EVQLVESGGGLVQPGGSLRLSCAASGFPFEPFAMNWVRQAPGKGLEWVGRIRSKANNYATYYADSVKDRFTISRDDSKRSLYLLMNSLKFEDTAVYYCVRGRENNYGYAMDYWGQGTTVTVSS VL: DVVMTQSPLSLPVTLGQPASISCRSSQSLLHSNGITYLYWFQQRPGQSPRRLIYRMSNLASGVPDRFSGSGSGTDFTLKISRVEAEDVGVYYCMQHLTYPFTFGIGTKVEIK	414		
anti-CCR8 antibody 1187 (antibody, V domains shown) VH: EVQLVESGGGVVQPGRSLRLSCAASGFPFEPFAMNWVRQAPGKGLEWVARIRSKANNYATYYADSVKDRFAISRDNSKRTLYLLMHSLRFEDTAVYYCVRGRENNYGYAMDYWGQGTTVTVSS VL: DVVMTQSPPSLPVTLGQSASISCRSSQSLLHSNGITYLYWFLQRPGQSPRLLIYRMSNLASGVPDRFSGSGSGTDFTLRISRVEAEDVGVYYCMQHLTYPFTFGIGTKVEIK			IC50, inhibition of chemotaxis of hCCR8-transfected P815 cells to 1 nM CCL1 (intact IgG1, Cell Titer Glo) [4]: 4.03 ng/mL
